Data published in the DeepSol protein solubility set.

Test: soluble on expression in E. coli; label from the status in PepcDB or PDB records

Sequence | soluble on expression in E. coli
MAHHHHHHMFNHDIIKEKDNYKQKIRTLYRNEKEAIKPCNHYDMKEEEKKKSGKIKRSIKLFGTPAVHGLSSHINNNSGTQLYYNFHNVLKRDKEKIQDDNLNYTLERDAGEDNTMQSIHESDKTETQECGKHYLYNKFDIYKSYLSYKKDLIRNEYDQDYKGITTSLLKGKDTHDDNKDNKDNDDNDDNDDNNDHNDHYDITRDDPCDDMCDDMCEDMCDDMCDDMCDDPCDDMCDDPCDDMCDDPCDDMCDDPCDDPYDHPYEEEKYSTYCDKGYLRNFLKNAIIRPNLQTFVGRKIISFLNEKERDIFSLTCKILFFEVYSVSNLKTLYKYQFISNEKRSFIWKAILLEDNTYISEEDYKELRNRKCLYDKAIEKDINRTFPKHPFFINKNMNMQDKLLDILKVCSLYFERIGYCQGMNYIAGILLLVFRKNIDTIRCFISMLKNYNIKGMFSYNFPQLKKIIYQLNLLIKAYIPKLFYYFKRKKIKIDFFCVNWFLTLFSQDLSFENTLKLWDLFFLFGMKILIKLTLILLYYHEDNIIHLSYDEALTYLKAITKTPFIDYLFQDDHFFTHLKKFKITNSMLTQIIMLKKSRQKINLLVKENNGKLRCSIQIKQNNKHTFTSKIKEGFRNLFKLNENYVDYINYFYQKGDGEENNGNQNNGEEYNGKEYNGNQNNGNQNNGKQNNGNQNNGKQNNGNQNNVKQNNGEDTNKNNNNDDINNNICHNNYSSTNFYKNFFQHFNCGNIFNNPNYSNEIVLTNTTCLSVHFNSNVLCNSQNIKNKNTIHSLENIKEEHDHTKNPSNFFLETNTYYDLNLTKSVDGNN | soluble
MSLEGHIVITGATGVIGSEVARRLIKSGREVVVFARSPQSAAAKVPGAADYVRWDSDMAPDGWSSSIDGAYAVIHLAGRPLLETRWTEEHKVACYDSRIKGTRALVAAMASASVKPKVFVSSSAIGYYGSFDRCEETDPLTEKAAPGKDFLAKICFDWEKEARPAETLGTRVVLLRTGIVLSTKGGMLQKMMIPFSYFVGGPVGSGDQCLSWIHLDDEVSIILQALDNADWSGPVNAVAPEPVSMKAFADSLGLVMHRPSLFPVPKLAVQILLGEGADYAVKGQKVSPEFLKERDFHFAWPSLNEALADLVSRGEGHHHHHH | soluble
MPIKVGINGFGRIGRMVFQALCEDGLLGTEIDVVAVVDMNTDAEYFAYQMRYDTVHGKFKYEVTTTKSSPSVAKDDTLVVNGHRILCVKAQRNPADLPWGKLGVEYVIESTGLFTAKAAAEGHLRGGARKVVISAPASGGAKTLVMGVNHHEYNPSEHHVVSNASCTTNCLAPIVHVLVKEGFGVQTGLMTTIHSYTATQKTVDGVSVKDWRGGRAAAVNIIPSTTGAAKAVGMVIPSTQGKLTGMSFRVPTPDVSVVDLTFTAARDTSIQEIDAALKRASKTYMKGILGYTDEELVSADFINDNRSSIYDSKATLQNNLPKERRFFKIVSWYDNEWGYSHRVVDLVRHMASKDRSARL | soluble
MGSDKIHHHHHHMEGEYRALNDISLESNVLFFGKESCLPNYFYPGNNVRKNYVIHYILKGKGTFSSANHPSIELKAGDIFILPKGIPCFYKADGKEPWTYLWIGFSGLKIKNILSRSLLLSQRYLHQVQNSHFTDSLLKLFDALHNPDTSTNNDLLIESLIYQTFYYLNSEYPAQNKTNIKSSIRLKTATKYLYDNFTDNNCSIYLLCNKLGVSRSYLYNIFKEGMNLSPQQFLIKLRMEEAKNKLKNSQNSIQEISTSVGYTDTFTFSKAFKKYSGFSPKNYRQIKSSEN | not soluble
MGNQLDRITHLNYSELPTGDPSGIEKDELRVGVAYFFSDEEEELDDRSQSDSFKDNNSPSKDGPVARNEIEYTAFCCQECIYSKLRENEDLNVYSVKTLLTMCKPGDLLELVANAQPPHWAIFEGEDQVIHLYKGEIRKDSLFEISCGRQARIVNNRYRYRPLPADLVMQNASGHVGLSSGEICWTNSESFAAWCRFGKREFKAGGEVHSVEQRYFLKVHLSESTAHTLMFRSLEEMIRERRRVDASGILKELSLVTGKE | not soluble
MGSDKIHHHHHHMIVRHKLLADLVRLWKNDQLVEKIDRLPIELSPRKSKPLGRCCVHKERAVWRYKTFPLMGLDMTDEHDEVTPLSEYARMALNRPEPSKENIMCVIDEACSSCVQINYEITNLCRGCVARSCYMNCPKDAIRFKKNGQAMIDHDTCVSCGICHKSCPYHAIVYIPVPCEESCPVKAISKDEHGVEHIDESKCIYCGKCMNACPFGAIFEISQTFDVLQHIKKGEKLVAIIAPSILGQFKTSIEQVYGAFKEIGFTDIIEVAEGAMMTTSNEAHELLEKLEEGQKFMTTSCCPSYIELVEKHMTEMKPYVSTTGSPMYYAARIAKEKHPDAKIVFVGPCVAKRKEVRRDDAVDYILTFEEVGSILDGMDIQLEQVNSFSILHTSVREAHGFAQAGGVMGAVKAYLKEEADKINAIQVSDINKKNIALLRACAKTGKAAGQFIEVMACEGGCITGPSTHNDIVSGRRQLAQELLKRKESYETMDR | not soluble
MGSDKIHHHHHHMIRAGIIGATGYTGLELVRLLKNHPEAKITYLSSRTYAGKKLEEIFPSTLENSILSEFDPEKVSKNCDVLFTALPAGASYDLVRELKGVKIIDLGADFRFDDPGVYREWYGKELSGYENIKRVYGLPELHREEIKNAQVVGNPGCYPTSVILALAPALKHNLVDPETILVDAKSGVSGAGRKEKVDYLFSEVNESLRPYNVAKHRHVPEMEQELGKISGKKVNVVFTPHLVPMTRGILSTIYVKTDKSLEEIHEAYLEFYKNEPFVHVLPMGIYPSTKWCYGSNHVFIGMQMEERTNTLILMSAIDNLVKGASGQAVQNMNIMFGLDETKGLEFTPIYP | soluble
MQAPVVTETCQTNEEGEQLVLRLRAPVERPRVTWGAGVIDNEHMGRLKSNCCCIYTPPRVWDDPSTWEPEEHETEHCRGHTLPEKKQKPQGGHGSDKDEDKGNCGCDHC | not soluble
LGTQMGIQTPIRIEAFDNSNIQGVDPVSAMVTFVDGKPDKKNYRKYKIKTVKGPDDYKSMREVVRRRYSRVLNEGLPLPDLIIVDGGKGHMNGVIDVLQNELGLDIPVAGLQKNDKHQTSELLYGASAEIVPLKKNSQAFYLLHRIQDEVHRFAI | not soluble
GSPAAAPPTLPPYFMKGSIIQLANGELKKVEDLKTEDFIQSAEISNDLKIDSSTVERIEDSHSPGVAVIQFAVGEHRAQVSVEVLVEYPFFVFGQGWSSCCPERTSQLFDLPCSKLSVGDVCISLTLKNLKNG | soluble
MGSDKIHHHHHHMTAFNPIAIIPHYNHSATVGSVAEQLNQLGLPVLIVDDGSSLEHKAVIEQFPQNEQLSILFCEINGGKGAAFKAGLKQTQKLGFSHAIQVDADGQHNIIDVKKMLEQAEKSPNAIVCGKPIYGKDAPKSRLYGRKITDFWNAINTLSFDIKDGMCGFRIYPIAQIMPILAQEQIGGGMDFDTEILIHSYWQKIPLIWVDTPVKYEKDGISHFRGWADNWLISKMHARLFFRMLKRLFTGKIR | not soluble
MSLDTYTTSEVADLIGVHPNTVRLYEELNLIPKPKRNTNGYRIFNDFHIEQFRFARTALKIEVVQRGLRKDALEIVRTSANRDFDKAISLVNQYLQQLEIEKSNAEEALTIVAQILNGNTPETNKLFLTRKETAEHLNVTIDTLRNWEMNGLLKVKRKQNGYRVYTDEDIKRLKIISALRCANYSLSAILRMLNALSSNPNTNIKTVLDTPKDDDEIISVCDKLITSLKEAEHNAKTMKSHLQIMKKQFSEGHHHHHH | soluble
GVVGSDARSRGRVPGYASSSLYRESGIISARQLALLQRMLPRLRLEQLFRCEWLQQRLARGLALGREEVRQILLCAAQDDDGWCAELGDRVNLAVPQSMIDWVLLPVYGWWESLLDQAIPGWRLSLVELETQSRQLRIKSEFWSRVAELEPEQAREELARVAKCQARTQEQVAELAGKLETASALAKSAWPNWQRGMATLLASGGLAGFEPIPEVLECLWQPLCRLDDDVGAADAVQAWLHERNLCQAQDHFYWQS | soluble
SEHWQAGRFIGQQTSARPSSKPLLAVQIDDLLTLASRFVGEERARQSFIRFAYRQGKGFNPNQNADGDWIEHTERLLAGVLGTSSTRAVVKAAIEGRDMQLEDVVRIADEASEVLQFNRALLQGAIENINQGISVVDQNL | not soluble
MGDKQFAVIGLGRFGLAVCKELQDSGSQVLAVDINEDRVKEAAGFVSQAIVANCTHEETVAELKLDDYDMVMIAIGADVNASILATLIAKEAGVKSVWVKANDRFQARVLQKIGADHIIMPERDMGIRVARKMLDKRVLEFHPLGSGLAMTEFVVGSRLMGKTLSDLALCKVEGVQVLGFKRGPEIIKAPDMSTTLEIGDLIIVVGPQDKLANKLKSLEHHHHHH | soluble
LTSTLLRLSTDKIGAIIAIENQDSLESYVNIGYRVTSDFSPELLVTIFYNKQSPLHDGAVIVRDYQIVSVSSYFPMTRQLIDVSYGSRHRSALGLTEKCDAIVFIVSETTGKISVAVRGVIK | not soluble
MFVAREHELQVLEKLFTSDSFEMVVLYGRRRVGKTALIDEFVKDKRVLYFTAIQQSAKMNLEDFSRAALSFFGMPDSTPSFGGWSDALSFVAERAAQTDERMVFVFDEFPYAAAAEPALPSMLQIAIDHGFLATKVTMILSGSNEGFMENDVLGRKSPLYGRRTAQIRLLPFDYADAAKFLTNTSPQELVQYYATFGGTPYYLARIQEADGFESNVLRLMFDNLGVLREEPMMLLRQELREPASYYSILQSIAGGNSSPKLIAEHAGVGSDSIGAYLKTLVDLRLIERKVPFGEDPSKSRKGMYVVSDPFFAYWFRFVGRNMSILDGNISEEVTSRLAFGPAFDTYVGQQFETICLQWLIRNNAMGNLPFVATQFGKWWGNDPIAHEQTDIDVIAADSLDKTILFGECKWRNSFNETEAIEKLHQRAGLVRGYQAGNAWLMLFTKNPVSESTRTRYMDDERMVFVSAEELYTALEHHHHHH | not soluble
MSLYKKYLLLGVSLCMLNACNESKSVSLEGSLDGIQADSIYLYQVDNEHYGSVKLIKSIAVTDGRFAYPTDSIQAGLYCFSLQNMERGEYLQQYANLFLEPKSMQLTLGKDKYDQLSLHATGSALQEQYEALQEAKYVAGNRMVLDSLDHMFYEAREKGDREEMERIREVSSPYYESASEQTRKLINGEIAKNKGSYFGLYLYYTYRFQNHTFNTVEEIDEARNFIGSFDEASRRSGIYVKMQEGLDKFARCATGSVAPAITGIDLKGNSVSLNDFKGKYVLVDFWFAGCSWCRKETPYLLKTYNAFKDKGFTIYGVSTDRREEDWKKAIEEDKSYWNQVLLQKDDVKDVLESYCIVGFPHIILVDPEGKIVAKELRGDDLYNTVEKFVNGAKEGHHHHHH | soluble
MAHHHHHHMLEGPNAEEAKKAILECDGIFVPGGFGKRGVDGKCAAVALARHHNIPYFGVCLGMQVALIQVCREELGWKDANSEEFDPSSTHQIVRIMDCDRHSMGANMHLGARNVHLVEKNSIMSTIYSGADFVVERHRHRYEVNTTYLGQLRGAGVLISGVSDPTFGPHTRVEAIEIPSLRFFLAVQFHPEFVSSPMDPSPPYLAFMAAASKKEYKWPESCAARRVKTL | not soluble
MVDVVMAPCSPVECRTAVVIDVLRATSTIVTALSNGASGVIPVKTIEEALEKKKEGVLICGERNAQKPKGFNLGNSPLEYRKEKISGKTIVLTTTNGTQVIEKIRSEEIIAASFLNLSAVVEYLKSKEDILLVCAGTNGRFSLEDFLLAGAIVKRLKRNDLGDGAHAAERYFESVENTREEIKKHSSHAKRLISLGFENDIEFCTTEDLFKTVPALVNGVFILKEFP | soluble
MSLKVIATDMDGTLLDARGQLDLPRLEKILDQLDQRGIRFVIATGNEIHRMRQLLSPLVDRVVLVVANGARIFENNELIQAQTWDDAIVNKALTHFKGRACQDQFVVTGMKGDFVKEGTIFTDLESFMTPEMIEKFYQRMQFVDELTSDLFGGVLKMSMVVGEERLSSVLEEINALFDGRVRAVSSGYGCIDILQAGIHKAWGLEELLKRWDLKSQEIMAFGDSENDVEMLEMAGIAYAMENADEKAKAVATALAPANSQGGVYQVLENWLEKGEGHHHHHH | soluble
